Assay [1] concerns the target Met-IgG fusion protein (Homo sapiens (Human)) (UniProt P08581). Put plainly: HGF β/Met-IgG competition ELISA; tracer biotinylated HGF β.
The target is the same in assay [2]. Put plainly: HGF β/Met-IgG competition ELISA; tracer 250 nM biotinylated wildtype HGF β. (In an ELISA, binding on a coated surface is turned into a signal by an enzyme label.)

pIC50: −log10 of the molar value.

Sequence of UniProt P08581 (P08581 25-930 limits assumed, form in doubt): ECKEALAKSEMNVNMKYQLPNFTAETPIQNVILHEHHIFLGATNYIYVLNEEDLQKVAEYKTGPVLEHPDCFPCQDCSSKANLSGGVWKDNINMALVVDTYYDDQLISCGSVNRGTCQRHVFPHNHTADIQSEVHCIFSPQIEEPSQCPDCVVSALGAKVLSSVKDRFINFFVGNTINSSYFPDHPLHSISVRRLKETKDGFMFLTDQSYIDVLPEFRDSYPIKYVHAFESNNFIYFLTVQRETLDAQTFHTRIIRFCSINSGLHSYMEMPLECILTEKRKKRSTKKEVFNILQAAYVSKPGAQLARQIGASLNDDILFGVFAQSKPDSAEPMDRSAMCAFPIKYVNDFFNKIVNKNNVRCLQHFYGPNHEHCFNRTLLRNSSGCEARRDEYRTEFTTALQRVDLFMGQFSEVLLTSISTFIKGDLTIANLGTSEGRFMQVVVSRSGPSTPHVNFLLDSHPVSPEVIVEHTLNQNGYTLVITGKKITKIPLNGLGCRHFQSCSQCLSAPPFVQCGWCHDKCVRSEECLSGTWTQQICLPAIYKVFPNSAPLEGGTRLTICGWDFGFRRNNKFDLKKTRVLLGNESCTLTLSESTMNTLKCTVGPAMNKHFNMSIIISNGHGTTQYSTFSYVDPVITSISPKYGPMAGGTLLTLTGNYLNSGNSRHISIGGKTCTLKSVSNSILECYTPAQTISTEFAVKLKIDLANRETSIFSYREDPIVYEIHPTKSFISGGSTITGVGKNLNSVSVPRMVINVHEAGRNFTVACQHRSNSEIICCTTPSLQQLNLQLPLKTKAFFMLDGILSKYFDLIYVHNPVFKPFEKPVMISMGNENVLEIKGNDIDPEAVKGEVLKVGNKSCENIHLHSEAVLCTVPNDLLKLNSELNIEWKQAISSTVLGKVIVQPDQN

By pIC50 is commonly meant −log10 of the IC50, conventionally taken in molar units. A high value points to a small IC50. For “proHGF β (HGF residues Asn479 to Ser728 with R494E) (from UniProt P14210 479-728) (ligand)”, the relative IC50 (normalized to HGF β) (relative to HGF β) in assay [1] was 21. Moreover, in assay [2], the negative-log IC50 (pIC50) was 4.94 and the fold reduced binding against HGF β worked out at 13.5 fold.

The values above are taken from patent US20060003931A1.
